Laboratory results reported in patent publication US20220259593A1, “CONTROL OF MAMMALIAN GENE DOSAGE USING CRISPR” (The Regents of the University of California, priority 2019, published 2022).
Substitutions are numbered along the chain they refer to.

B1: cr960 (nucleic acid)
guide: GTTTAAGAGCTAAGCTGGAAACAGCATAGCAAGTTTAAATAAGGCTAGTCCGTTATCATATTGAAAAATAGGCACCGAGTCGGTGCT
modifications: listed as DNA, chemistry not fully specified
B2: cr104 (nucleic acid)
guide: B1 guide with T59A, A60C, T69G, A70T, C73A
modifications: listed as DNA, chemistry not fully specified
B3: cr506 (nucleic acid)
guide: B1 guide with G44C, C50G, T59A, A60C, T69G, A70T, C73G, G85C
modifications: listed as DNA, chemistry not fully specified
B4: cr517 (nucleic acid)
guide: B1 guide with T59A, A60C, T69G, A70T, G82T
modifications: listed as DNA, chemistry not fully specified
B5: cr215 (nucleic acid)
guide: B1 guide with T59A, A60C, T69G, A70T, G71A
modifications: listed as DNA, chemistry not fully specified
B6: cr590 (nucleic acid)
guide: B1 guide with T59A, A60C, A65C, T69G, A70T, T80C
modifications: listed as DNA, chemistry not fully specified
B7: cr435 (nucleic acid)
guide: B1 guide with A31C, T53G, T59A, A60C, T69G, A70T
modifications: listed as DNA, chemistry not fully specified
B8: cr871 (nucleic acid)
guide: B1 guide with G44C, C50G, T59A, A60C, T69G, A70T
modifications: listed as DNA, chemistry not fully specified
B9: cr543 (nucleic acid)
guide: B1 guide with T35C, T59A, A60C, T69G, A70T
modifications: listed as DNA, chemistry not fully specified
B10: cr678 (nucleic acid)
guide: B1 guide with T59A, A60C, T69G, A70T, G85A
modifications: listed as DNA, chemistry not fully specified
B11: cr585 (nucleic acid)
guide: B1 guide with T59A, A60C, T69G, A70T, A74T, T84A
modifications: listed as DNA, chemistry not fully specified
B12: cr516 (nucleic acid)
guide: B1 guide with G44C, C50G, T59G, A60C, T69G, A70C
modifications: listed as DNA, chemistry not fully specified
B13: cr407 (nucleic acid)
guide: B1 guide with G44C, C50G, T59A, A60C, T61C, A68G, T69G, A70T, C75T, G83A
modifications: listed as DNA, chemistry not fully specified
B14: cr362 (nucleic acid)
guide: B1 guide with T59A, A60C, T69G, A70T, C76A
modifications: listed as DNA, chemistry not fully specified
B15: cr319 (nucleic acid)
guide: B1 guide with A42G, T59A, A60C, A65G, T69G, A70T
modifications: listed as DNA, chemistry not fully specified
B16: cr905 (nucleic acid)
guide: B1 guide with T59A, A60C, T69G, A70T, G72A, C73T, G77A, C81T, G85A, C86T
modifications: listed as DNA, chemistry not fully specified
B17: cr879 (nucleic acid)
guide: B1 guide with T46G, T54C, T56G, T59A, A60C, T69G, A70T
modifications: listed as DNA, chemistry not fully specified
B18: cr621 (nucleic acid)
guide: B1 guide with G44A, C50T, T59A, A60C, T61G, A68C, T69G, A70T, G77A, C81T
modifications: listed as DNA, chemistry not fully specified
B19: cr289 (nucleic acid)
guide: B1 guide with T59A, A60C, T62G, A67C, T69G, A70T
modifications: listed as DNA, chemistry not fully specified
B20: cr484 (nucleic acid)
guide: B1 guide with T59A, A60C, T69G, A70T, G72C, G77A, C81T, C86G
modifications: listed as DNA, chemistry not fully specified
B21: cr370 (nucleic acid)
guide: B1 guide with T59A, A60C, A65G, T69G, A70T, C76G, G82C
modifications: listed as DNA, chemistry not fully specified
B22: cr394 (nucleic acid)
guide: B1 guide with T59A, A60C, A67C, T69G, A70T
modifications: listed as DNA, chemistry not fully specified
B23: cr733 (nucleic acid)
guide: B1 guide with T59A, A60C, T69G, A70T, C75A, C76A, G82T, G83T
modifications: listed as DNA, chemistry not fully specified
B24: cr919 (nucleic acid)
guide: B1 guide with T59C, A60C, T62G, A67C, T69G, A70G
modifications: listed as DNA, chemistry not fully specified
B25: cr931 (nucleic acid)
guide: B1 guide with T59A, A60C, T69G, A70T, A74C, C76T, G82A, T84G
modifications: listed as DNA, chemistry not fully specified
B26: cr554 (nucleic acid)
guide: B1 guide with A32G, T56C, T59A, A60C, T69G, A70T, G71A
modifications: listed as DNA, chemistry not fully specified
B27: cr785 (nucleic acid)
guide: B1 guide with T46G, T59A, A60C, T69G, A70T, T87G
modifications: listed as DNA, chemistry not fully specified
B28: cr916 (nucleic acid)
guide: B1 guide with G44A, C50T, T59A, A60C, A65G, T69G, A70T
modifications: listed as DNA, chemistry not fully specified
B29: cr391 (nucleic acid)
guide: B1 guide with G44C, C50G, T59A, A60C, T69G, A70T, C75A, G83T
modifications: listed as DNA, chemistry not fully specified
B30: cr420 (nucleic acid)
guide: B1 guide with T59A, A60C, T69G, A70T, G72T, C73G, G77T, C81A, G85C, C86A
modifications: listed as DNA, chemistry not fully specified
B31: cr911 (nucleic acid)
guide: B1 guide with T46A, A47C, T59A, A60C, T69G, A70T, G79A
modifications: listed as DNA, chemistry not fully specified
B32: cr697 (nucleic acid)
guide: B1 guide with A28T, T46G, T59A, A60C, A64C, T69G, A70T
modifications: listed as DNA, chemistry not fully specified
B33: cr740 (nucleic acid)
guide: B1 guide with T59A, A60C, T69G, A70T, G72C, C75G, G83C, C86G
modifications: listed as DNA, chemistry not fully specified
B34: cr652 (nucleic acid)
guide: B1 guide with A28C, T53G, T59A, A60C, A64G, T69G, A70T
modifications: listed as DNA, chemistry not fully specified
B35: cr647 (nucleic acid)
guide: B1 guide with C25G, T59A, A60C, T69G, A70T
modifications: listed as DNA, chemistry not fully specified
B36: cr470 (nucleic acid)
guide: B1 guide with G24T, T59A, A60C, T69G, A70T
modifications: listed as DNA, chemistry not fully specified
B37: cr162 (nucleic acid)
guide: B1 guide with T59A, A60C, T69G, A70T, T84A
modifications: listed as DNA, chemistry not fully specified
B38: cr816 (nucleic acid)
guide: B1 guide with T59A, A60C, T69G, A70T, G71T
modifications: listed as DNA, chemistry not fully specified
B39: cr818 (nucleic acid)
guide: B1 guide with C30G, T59A, A60C, T69G, A70T
modifications: listed as DNA, chemistry not fully specified
B40: cr601 (nucleic acid)
guide: B1 guide with C30A, T59A, A60C, T69G, A70T
modifications: listed as DNA, chemistry not fully specified
B41: cr876 (nucleic acid)
guide: B1 guide with T59A, A60C, T69G, A70T, G82A
modifications: listed as DNA, chemistry not fully specified

System: K562 CRISPRi cells
Assay: Constant region variant library pooled growth screen, K562
Assay type: cell-based, human
Conditions: sgRNA constant region variants; activity relative to the original, un-modified constant region cr995
Procedure, shortened: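 K562 CRISPRi, duplicate transductions; puromycin 1 d 0.75 μg/mL then 1 d 0.85 μg/mL; >2000× coverage in spinner flasks; harvests at 4-8 d growth. Activity = phenotype ÷ phenotype with unmodified constant region.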

Molecule	Mean relative activity
B1	0.8446
B2	0.8063
B3	0.8078
B4	0.8173
B5	0.8059
B6	0.8361
B7	0.8281
B8	0.8313
B9	0.8231
B10	0.8081
B11	1.056
B12	0.8009
B13	0.8278
B14	0.8214
B15	0.8419
B16	0.8019
B17	0.798
B18	0.818
B19	1.102
B20	0.7978
B21	0.8417

Molecule	Mean relative activity
B22	1.055
B23	0.807
B24	1.056
B25	0.8044
B26	0.8332
B27	0.8378
B28	0.8207
B29	0.8216
B30	0.8229
B31	0.8101
B32	0.8183
B33	0.8153
B34	0.7959
B35	0.8408
B36	0.809
B37	0.8263
B38	0.8315
B39	0.7972
B40	0.8216
B41	0.8037
